Article PMC6911170

Molecular target: T1, GST-Zc3h10 full length (UniProt Q8R205 1-435)
T1 sequence: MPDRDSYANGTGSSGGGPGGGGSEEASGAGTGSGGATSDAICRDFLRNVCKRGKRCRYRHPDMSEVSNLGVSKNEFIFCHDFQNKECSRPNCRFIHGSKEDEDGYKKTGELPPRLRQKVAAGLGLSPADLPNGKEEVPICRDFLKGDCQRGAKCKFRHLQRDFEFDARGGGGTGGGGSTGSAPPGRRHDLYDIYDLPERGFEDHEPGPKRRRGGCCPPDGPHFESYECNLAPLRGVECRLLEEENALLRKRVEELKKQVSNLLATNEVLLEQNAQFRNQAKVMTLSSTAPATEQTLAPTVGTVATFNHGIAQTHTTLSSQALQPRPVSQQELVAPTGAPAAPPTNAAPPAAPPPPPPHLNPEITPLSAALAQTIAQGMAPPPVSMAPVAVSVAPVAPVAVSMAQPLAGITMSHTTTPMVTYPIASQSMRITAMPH
Test: EMSA

B1: -4.6 kb UCP1 probe (dsDNA)
DNA 1: TTTACCAAGTCCTTTCCACCGTGCAGGACGCACCATTCGGCAGCTTCCAGTTGTCTGGGAACTTCCAGTTGAAGGGATGA
DNA 2: TCATCCCTTCAACTGGAAGTTCCCAGACAACTGGAAGCTGCCGAATGGTGCGTCCTGCACGGTGGAAAGGACTTGGTAAA
  binding result: binds
